Data published in patent publication US20130280279A1, “PHARMACEUTICAL COMPOSITION OF A COMPLEX OF AN ANTI-DIG ANTIBODY AND DIGOXIGENIN THAT IS CONJUGATED TO A PEPTIDE” (HOFFMANN-LA ROCHE INC., priority 2011, published 2013).

B1: murine DIG-IgG 19-11: monoclonal murine <Dig> IgG1 kappa antibody from hybridoma clone 19-11 (antibody, V domains shown)
VH: EVQLVESGGGLVKPGGSLKLSCAVSGFTFSDYAMSWIRQTPENRLEWVASINIGATYAYYPDSVKGRFTISRDNAKNTLFLQMSSLGSEDTAMYYCARPGSPYEYDKAYYSMAYWGPGTSVTVSS
VL: DVQMTQSTSSLSASLGDRVTISCRASQDIKNYLNWYQQKPGGTVKLLIYYSSTLLSGVPSRFSGRGSGTDFSLTITNLEREDIATYFCQQSITLPPTFGGGTKLEIK
B2: humanized DIG-IgG: humanized IgG with the binding specificity of murine <Dig> 19-11 (antibody, V domains shown)
VH: QVQLVESGGGLVKPGGSLRLSCAASGFTFSDYAMSWIRQAPGKGLEWVSSINIGATYIYYADSVKGRFTISRDNAKNSLYLQMNSLRAEDTAVYYCARPGSPYEYDKAYYSMAYWGQGTTVTVSS
VL: DIQMTQSPSSLSASVGDRVTITCRASQDIKNYLNWYQQKPGKAPKLLIYYSSTLLSGVPSRFSGSGSGTDFTLTISSLQPEDFATYYCQQSITLPPTFGGGTKVEIKR

Experiments:
[1] = target: digoxigenated nucleic acids (siRNA-Dig); test: SPR (Biacore) binding to digoxigenated nucleic acids; conditions: 25° C., read-out: Kd towards digoxigenated nucleic acids (siRNA-Dig)
Experimental: For that, binding properties of the recombinant <Dig> derivatives were analyzed by surface plasmon resonance (SPR) technology using a Biacore T100 or Biacore 3000 instrument (GE Healthcare Bio-Sciences AB, Uppsala). This system is well established for the study of molecule interactions. It allows a continuous real-time monitoring of ligand/analyte bindings and thus the determination of association rate constants (ka), dissociation rate constants (kd), and equilibrium constants (KD) in various assay settings. SPR-technology is based on the measurement of the refractive index close to the surface of a gold coated biosensor chip. Changes in the refractive index indicate mass changes on the surface caused by the interaction of immobilized ligand with analyte injected in solution. […]
Anti-mouse IgG antibody was immobilized on the surface of a CM5 biosensor chip in the same fashion as described above. […] The samples to be analyzed were diluted in HBS-P (10 mM HEPES, pH 7.4, 150 mM NaCl, 0.005% Surfactant P20) and injected at a flow rate of 5 μl/min. […] Signals were detected at a rate of one signal per second. […]
Anti-mouse and anti-human IgG antibodies were immobilized on the surface of a CM5 biosensor chip in the same fashion as described above. The samples to be analyzed were diluted in HBS-P and injected at a flow rate of 5 μl/min. […]

DIG-myoglobin = test: SPR binding to mono-digoxigenated protein DIG-myoglobin
Experimental: Further SPR studies were performed in which the binding affinity of the humanized <DIG>-IgG, IGF1R-DIG and the murine <DIG>M-19-11 was compared in binding to a mono-digoxigenated protein DIG-myoglobin.

Molecule	Kd [1] [nM]	affinity to DIG-Myo compared with the humanized derivatives (DIG-myoglobin)
B1	0.269	clearly better
B2	12	
